Measurements: article doi:10.1101/2025.06.13.659598 (bioRxiv, 2025)

Molecular target: F-actin (rabbit skeletal muscle actin, polymerised) (rabbit, UniProt P68135 1-377)
Experiment: co-sedimentation

B1: FHOD1 wild-type, full length (natural protein)
chain: MAGGEDRGDGEPVSVVTVRVQYLEDTDPFACANFPEPRRAPTCSLDGALPLGAQIPAVHRLLGAPLKLEDCALQVSPSGYYLDTELSLEEQREMLEGFYEEISKGRKPTLILRTQLSVRVNAILEKLYSSSGPELRRSLFSLKQIFQEDKDLVPEFVHSEGLSCLIRVGAAADHNYQSYILRALGQLMLFVDGMLGVVAHSDTIQWLYTLCASLSRLVVKTALKLLLVFVEYSENNAPLFIRAVNSVASTTGAPPWANLVSILEEKNGADPELLVYTVTLINKTLAALPDQDSFYDVTDALEQQGMEALVQRHLGTAGTDVDLRTQLVLYENALKLEDGDIEEAPGAGGRRERRKPSSEEGKRSRRSLEGGGCPARAPEPGPTGPASPVGPTSSTGPALLTGPASSPVGPPSGLQASVNLFPTISVAPSADTSSERSIYKARFLENVAAAETEKQVALAQGRAETLAGAMPNEAGGHPDARQLWDSPETAPAARTPQSPAPCVLLRAQRSLAPEPKEPLIPASPKAEPIWELPTRAPRLSIGDLDFSDLGEDEDQDMLNVESVEAGKDIPAPSPPLPLLSGVPPPPPLPPPPPIKGPFPPPPPLPLAAPLPHSVPDSSALPTKRKTVKLFWRELKLAGGHGVSASRFGPCATLWASLDPVSVDTARLEHLFESRAKEVLPSKKAGEGRRTMTTVLDPKRSNAINIGLTTLPPVHVIKAALLNFDEFAVSKDGIEKLLTMMPTEEERQKIEEAQLANPDIPLGPAENFLMTLASIGGLAARLQLWAFKLDYDSMEREIAEPLFDLKVGMEQLVQNATFRCILATLLAVGNFLNGSQSSGFELSYLEKVSEVKDTVRRQSLLHHLCSLVLQTRPESSDLYSEIPALTRCAKVDFEQLTENLGQLERRSRAAEESLRSLAKHELAPALRARLTHFLDQCARRVAMLRIVHRRVCNRFHAFLLYLGYTPQAAREVRIMQFCHTLREFALEYRTCRERVLQQQQKQATYRERNKTRGRMITETEKFSGVAGEAPSNPSVPVAVSSGPGRGDADSHASMKSLLTSRPEDTTHNRRSRGMVQSSSPIMPTVGPSTASPEEPPGSSLPSDTSDEIMDLLVQSVTKSSPRALAARERKRSRGNRKSLRRTLKSGLGDDLVQALGLSKGPGLEV
**Q.** Does B1 bind?
**A.** binds
